Test results published in PMC4658703.
pKd: −log10 of the molar value. Where two headings read alike, the source gives them in different places.

Key:
Assay in all cases: SPR
Human IGF2 (human) [1] = molecular target: Human IGF2 (human)
[2] = molecular target: Echidna IGF2 (peak 2), purified recombinant (echidna)
Human IGF2 (human) [3] = molecular target: Human IGF2 (human); remark: listed apart in the source
[4] = molecular target: Echidna IGF2 (peak 2), purified recombinant (echidna); remark: listed apart in the source
Chicken IGF2 (chicken) [5] = molecular target: Chicken IGF2 (chicken) (UniProt P33717)
Chicken IGF2 (chicken) [6] = molecular target: Chicken IGF2 (chicken) (UniProt P33717); remark: listed apart in the source
Human IGF2 (human) [7] = molecular target: Human IGF2 (human); remark: listed apart in the source
[8] = molecular target: Echidna IGF2 (peak 2), purified recombinant (echidna); remark: listed apart in the source

Chain of Chicken IGF2 (chicken) (P33717 24-91): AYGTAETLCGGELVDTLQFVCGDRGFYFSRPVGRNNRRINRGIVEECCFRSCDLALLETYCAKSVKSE
Chain of Human IGF2R domain 11 (wild type) (P11717 1508-1650): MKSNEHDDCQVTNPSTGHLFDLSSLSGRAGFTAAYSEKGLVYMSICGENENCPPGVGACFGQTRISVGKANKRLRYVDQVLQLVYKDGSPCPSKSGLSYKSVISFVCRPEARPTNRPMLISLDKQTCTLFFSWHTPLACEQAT

Substance	pKd (Human IGF2 (human) [1])	ka1 (two state model, first step) (Human IGF2 (human) [1])	kd1 (two state model, first step) (Human IGF2 (human) [1])	pKd [2]	kd1 (two state model, first step) [2]	pKd (Human IGF2 (human) [3])	pKd [4]	pKd (Chicken IGF2 (chicken) [5])	ka1 (two state model, first step) (Chicken IGF2 (chicken) [5])	pKd (Chicken IGF2 (chicken) [6])	kd1 (two state model, first step) (Chicken IGF2 (chicken) [5])	pKd (Human IGF2 (human) [7])	pKd [8]
Human IGF2R domain 11 (wild type) (from UniProt P11717 1508-1650) (domain or fragment)	7.34	5e+06 m^-1 s^-1	0.23 s⁻¹	7.28	0.106 s⁻¹	7.19	7.11						
Opossum IGF2R domain 11 (domain or fragment)	6.89		0.108 s⁻¹	6.87	0.106 s⁻¹	6.79	6.80	6.77	1.76e+06 m^-1 s^-1	6.66			
Echidna IGF2R domain 11 (domain or fragment)	6.61		0.106 s⁻¹	6.59	0.138 s⁻¹	6.48	6.41	6.61		6.39	0.259 s⁻¹		
Human IGF2R domain 11^(E1544K, K1545S, L1547V) (clone E4) (from UniProt P11717 1508-1650) (domain or fragment)	7.82	2.76e+06 m^-1 s^-1	0.044 s⁻¹			7.81							
Chicken IGF2R domain 11 with echidna CD loop (domain or fragment)	6.37											6.49	6.48
